Columns and labels:
Details in all cases: tags: none; hairpin, 9 bp stem, 4 nt loop
[1] = biological target: T1, ATHP3 (AT-hook peptide 3) (mammalian (species ), UniProt P52926 74-83); test: ITC; two-site model, site 2, n2 = 1.1; ITC, UV melting and fluorescence in 1xBPE (6 mM Na2HPO4, 2 mM NaH2PO4, 1 mM Na2EDTA, pH 7.0), ITC 10 uM DNA; native MS probably in ammonium acetate (concentration not given); temperature not stated
T1 chain: KRPRGRPRKW

[2] = biological target: T2, ATHP1 (AT-hook peptide 1) (mammalian (species ), UniProt P52926 26-34); test: ITC; two-site model, site 2, n2 = 1.4; ITC, UV melting and fluorescence in 1xBPE (6 mM Na2HPO4, 2 mM NaH2PO4, 1 mM Na2EDTA, pH 7.0), ITC 10 uM DNA; native MS probably in ammonium acetate (concentration not given); temperature not stated
T2 chain: KRGRGRPRK

[3] = biological target: T2, ATHP1 (AT-hook peptide 1); test: ITC; two-site model, site 1, n1 = 1.3; ITC, UV melting and fluorescence in 1xBPE (6 mM Na2HPO4, 2 mM NaH2PO4, 1 mM Na2EDTA, pH 7.0), ITC 10 uM DNA; native MS probably in ammonium acetate (concentration not given); temperature not stated
[4] = biological target: T1, ATHP3 (AT-hook peptide 3); test: as above
[5] = biological target: T3, ATHP2 (AT-hook peptide 2) (mammalian (species ), UniProt P52926 45-53); test: native IMS-MS; Hoechst 33258 in minor groove, 1:1:1 complex; ITC, UV melting and fluorescence in 1xBPE (6 mM Na2HPO4, 2 mM NaH2PO4, 1 mM Na2EDTA, pH 7.0), ITC 10 uM DNA; native MS probably in ammonium acetate (concentration not given); temperature not stated
T3 chain: PKRPRGRPK

GGATATTGCCCCCGCAATATCC (structured_DNA) [FL876]
Ka [1]: 1.1e+06 M⁻¹
Ka [2]: 4e+06 M⁻¹
Ka [3]: 1.9e+08 M⁻¹
Ka [4]: 1.1e+07 M⁻¹
binding result [5]: binds
